Values quoted from earlier work as cited in publication PMC11827629.

Tested on: thrombin (as in cited literature)
Assay: cited
Details: smFRET: 1x PBS with 2.5 mM PCA, 0.155 U/ul PCD, 1 mM Trolox, 5 nM Cy3-aptamer, 23 +/- 1 C, pH not stated; QCM: PBS, flow 45 +/- 3 ul/min, thrombin 0.06-16.5 nM

Substance | Kd
RE31 (cited) | 1.4 nM
NU172 (cited) | 3.2 nM
HD1 (cited) | 7.1 nM
